± gives the uncertainty stated by the source.

The nature of this data set: amyloid nucleation score (Sup35N fusion, yeast selection) (log enrichment); library NNK1; higher = more nucleation; inactive = no reads after selection. An outline of the steps: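 The nucleation score is the log enrichment of output over input reads, calculated with DiMSum and centred on the mode score of non-aggregating sequences. Sequences with under 100 input reads were excluded. Reads came from Illumina sequencing of plasmid inserts from psi-negative yeast expressing Sup35N fused to peptides of 20 random codons, induced 24 hours with 100 μM copper sulfate and grown 7 days at 30°C without adenine and uracil.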
GAKFSTVSRENDDMHFAWLW registered an amyloid nucleation score of 1.19 ± 0.97.
Then GARVTLYAVS, with -0.475 ± 0.36; and GCGFSWSLCGESPYAVRPVA, with 0.538 ± 0.55; and GCKGGSATCSTRTWMCSWGG, with 2.27 ± 0.12.
For GCTGPHFVYTDGRMHWSGSS the value was -0.529 ± 0.49; for GCTRNCSKCKGMHSQRHPYP, -0.837 ± 2.4; for GDDLQFT, 1.88 ± 0.69.
For the substance GDLSLRLLG, the amyloid nucleation score is 0.419 ± 0.66.
GDSMV: the amyloid nucleation score is -0.606 ± 0.4.
For GDYSCPLGNIINHDPMLFRW the value was 0.107 ± 0.23; for GEGICL, -0.012 ± 1.1.
GERGQFTILISYMALRDRLM: the amyloid nucleation score stood at 2.45 ± 0.13.
Take GEYRDGFSLRVMGLHGSLNH: the amyloid nucleation score stood at 1.07 ± 0.58.
Then GFCLVVLGYCFYMFYATNNS, with 0.042 ± 0.9.
Then GFNDGVVR, with 0.874 ± 0.55.
For the substance GFNKR, the amyloid nucleation score was -0.991 ± 2.4.
Then GFPRCVWFNSSVIQESSFFV, with 0.571 ± 1.2; and GFSILAPSKYVVNYWMHPQS, with 7.691 ± 0.049.
For GFSIYRCHYFSGRMVTNVSM the value was -0.475 ± 1.7; for GFTDYNRVRYKVLTVVFDYG, -1.51 ± 0.95; for GFTYTC, -0.915 ± 1.1.
For the substance GFVGYNCLCFCKSVA, the amyloid nucleation score is -1.05 ± 0.84.
GFWQLFLRVIPLFSVGYSNC gave an amyloid nucleation score of 0.875 ± 0.69.
Then GFYGRICL, with 0.101 ± 0.46; and GGAQMVHTSQSRCAARGV, with -0.831 ± 0.7; and GGGSMAGAERPGGLGQVRCN, with 1.2 ± 0.6.
Then GGMIAIKHKFIYYDLELWGY, with -0.94 ± 0.43; and GGMLQLSSSDFTRWAQEWSI, with 0.355 ± 0.73.
Substance GGNDHVANLTCNNVAGSRGT registered an amyloid nucleation score of 4.33 ± 0.14.
Then GGPVREYTRMSPSVGVLDEA, with 0.489 ± 0.86.
Then GGSMGHPGTLMERSYNLVVA, with 0.951 ± 0.46.
For GGSVRRDQMVYREDMQSNST the value was -0.746 ± 0.93; for GGSYKEYTLCKHTAP, 0.506 ± 0.67; for GGTSRLQDVDAALTGTWVSP, 0.042 ± 0.37.
Substance GGWDAGGGHAIRRIVECMVR yielded an amyloid nucleation score of 0.601 ± 1.1.
For GGYGERRDVVVDRSYTVDTG the value was 0.071 ± 0.62.
As to GGYGSIECFRSLVREKCCSV, the amyloid nucleation score was determined as 0.086 ± 0.62.
In turn, GGYMGL displayed an amyloid nucleation score of -0.158 ± 0.35.
Then GGYVLPYSLFFGVPSIAFVG, with 0.602 ± 0.7.
Then GHKNTRILQV, with -0.444 ± 1.9.
In the case of GHLQGPLSTLIHDW, the amyloid nucleation score amounted to 0.564 ± 0.47.
For GHSFGTVTDCVANQYNFLNI the value was 2.37 ± 0.19; for GHSRRLYCGLEAGARCGFSR, -0.455 ± 1.5.
With GHTRR, the amyloid nucleation score was -0.062 ± 0.41.
In the case of GHWLRQVSRRLVPADDCMVQ, the amyloid nucleation score entry is “inactive”.
Substance GIAWALKLRLVDAYPGMSMS returned an amyloid nucleation score of 0.168 ± 0.72.
On to GICLIAVVRGLIERGNGETE, for which the amyloid nucleation score amounted to 0.206 ± 1.1.
GIDTKDFFVAGMLGCVEGMD had an amyloid nucleation score of 0.245 ± 0.7.
Substance GIGAGYKFNDTVFSEGCSSG showed an amyloid nucleation score of 0.653 ± 0.93.
As to GIISFANRQSF, the amyloid nucleation score amounted to 7.944 ± 0.044.
GILMVELWSRR registered an amyloid nucleation score of 2.56 ± 0.18.
For GIRSLFGGKCWDHGSFMWKF the value was -0.195 ± 0.54.
Substance GISFWSLGC registered an amyloid nucleation score of 1.07 ± 0.84.
GITIITFIDGSLLGRDFPCW showed an amyloid nucleation score of 2.14 ± 0.26.
Then GIVSAESWSLLQDRHFGAVK, with 0.578 ± 0.55.
GIWPLGFGKFGSIFRFANVR: the amyloid nucleation score is 0.939 ± 0.6.
For GKFSKDKILLVSYHKAF the value was 0.886 ± 0.39; for GKHLTRNAWGRLSLVTDCVR, 0.486 ± 0.5.
For GKKTRRLYVKWSSSFLNWMK the value was 0.28 ± 0.85; for GKLDCVKVLNVHCP, 0.527 ± 0.61.
Then GKNFYREDAVSVCRWL, with 0.342 ± 0.64; and GKPVDRLS, with 0.066 ± 0.28; and GKSEVLTFGEGAHVGRSRFY, with 0.367 ± 0.46.
Consider GKWFVKRGRIRSAENCIRLF, for which the amyloid nucleation score was -0.785 ± 1.1.
For GLACYM the value was 0.413 ± 0.4.
Take GLCNGCIFWRVKRIKGLKWF: the amyloid nucleation score is -0.381 ± 0.22.
The substance GLGGYT displayed an amyloid nucleation score of -0.155 ± 0.49.
Then GLGVVPITAERRVSLRYSEC, with -0.242 ± 0.35; and GLICNIDVRMRFVFMVRGSP, with 2.45 ± 0.21; and GLLETYDWAVQWTGHLEC, with 0.168 ± 0.89.
Then GLLIFMITTLPFCFWCTVPR, with “inactive”; and GLLMISISYLITRMVFMDNI, with 0.412 ± 0.39.
For GLMDRRTFITICVYPFMESW the value was 4.37 ± 0.071; for GLRVLFGLLGVCPCRDSQWG, “inactive”.
Take GLSGSLSSVIYSSEVRSR: the amyloid nucleation score was 0.036 ± 0.29.
The substance GLTGLTLWARATRRRVGTLS registered an amyloid nucleation score of -0.153 ± 0.59.
With GLTWKTFPSCPMSENNCIRH, the amyloid nucleation score was determined as 0.133 ± 0.79.
GLVHMPGHLRVLRQLLSA returned an amyloid nucleation score of 0.377 ± 0.56.
Then GLWFVC, with 0.374 ± 0.75; and GLWQWAIHLRWIGIEHTQTR, with 0.295 ± 0.97.
Take GLYTLSHHGCNAQGWVRDGS: the amyloid nucleation score was 0.324 ± 0.45.
In turn, GMAVNGYHSLRGKVLEDVGN returned an amyloid nucleation score of -0.289 ± 0.79.
For GMCIRNRMRDNVNSLSSACD the value was 0.362 ± 1.4; for GMHLNCHGCILSSV, -0.021 ± 0.77.
For GMSCWGLCSYNTRAYRNNPT, the amyloid nucleation score is -0.151 ± 0.63.
Then GMSPPSNSFFSFCFTGLVKF, with 0.319 ± 0.61; and GMYPGESSWKLEKEVIL, with 0.539 ± 0.6.
Then GNFHQPFFLMVVFQHARAPL, with 6.291 ± 0.054.
Then GNIDGICERSCNRFANYIQG, with 1.11 ± 0.49.
Consider GNSRQYAFNRQIHMSSGESR, for which the amyloid nucleation score is -0.535 ± 0.66.
Then GNWASIWPLGFELLSYICQE, with -0.866 ± 0.49; and GNYNSPFFRGSVNWNWCM, with 0.485 ± 1.2.
Then GNYVVVVGYN, with 0.326 ± 0.5; and GPDNVCCGSRPKISDVGYGM, with “inactive”; and GPFIVIPK, with -0.149 ± 0.64.
For GPHLIKVCFSEPMGFKVFLL the value was 2.12 ± 0.14; for GPNTPSWYGCL, 0.196 ± 0.6; for GPPRN, 0.681 ± 0.65.
As for GPRFNVALES, the amyloid nucleation score is -0.347 ± 0.38.
For GPRHYKVFHSYSAFGGYSVC, the amyloid nucleation score worked out at 1.01 ± 0.81.
Consider GPSLFG, for which the amyloid nucleation score stood at 0.121 ± 0.37.
Then GPVRQHCYCDMTTVFRILGA, with -1.55 ± 1.4; and GPWAGVRVRSTCLVRYSWYG, with 0.242 ± 0.44.
For GQPVFSLDCIYYLLYCFDAT the value was 0.595 ± 0.6.
For GQRLLL the value was 1.07 ± 0.56; for GQTLALSYFTVLFSPMLNEW, 0.169 ± 1; for GQWGVVHIQQGVQYCATIRG, 0.331 ± 0.69.
In turn, GRCVNVSCHIRRPQVGTPRA yielded an amyloid nucleation score of 1.07 ± 0.8.
As for GRDDSGWPSVVVWSPGADQA, the amyloid nucleation score worked out at 0.243 ± 0.56.
Then GRDLPYMTRRNTLWSSKVVF, with 0.206 ± 0.35.
Regarding GRFSVVAISHKQTFNFDWRT, the amyloid nucleation score turned out to be 8.058 ± 0.072.
Then GRGTRLYVRRQW, with 0.39 ± 0.28; and GRGVLSSPSALGRFSLTEGM, with -0.444 ± 0.44.
In turn, GRLMTFSINRRNVWKCDGSR registered an amyloid nucleation score of -0.207 ± 1.1.
For GRLPLTKWASMTRVLMYLLR, the amyloid nucleation score is 0.652 ± 0.47.
Then GRMAMWYGTPKGGCCHKSLY, with “inactive”.
For the substance GRMSRMILD, the amyloid nucleation score is -0.407 ± 0.69.
The substance GRMTVRNCGQDPLVFRTYQG registered an amyloid nucleation score of -1.13 ± 2.7.
Substance GRSYFVVGFLSELCEKWLTK gave an amyloid nucleation score of 0.046 ± 1.
GSCDMKVVVKCHCEYGMKQD had an amyloid nucleation score of 2.24 ± 0.13.
As for GSCDYRFYNQLGEWNGYRMA, the amyloid nucleation score was -0.348 ± 0.49.
For GSERPNPV the value was 0.958 ± 0.63.
Then GSFVGRR, with 0.241 ± 0.46.
Then GSGNSHLLYRSSNRCLVLYR, with -0.134 ± 0.32; and GSGSVHSWHSLINSSDIFVT, with -0.682 ± 0.81.
The substance GSIQDVIRLAIDVGRAALTE came in with an amyloid nucleation score of 0.684 ± 0.55.
Consider GSLAW, for which the amyloid nucleation score is -0.972 ± 0.94.
Then GSMSGTTDIPC, with -0.158 ± 0.51; and GSPVCTRRRPASLPPLRQVH, with 0.208 ± 0.45.
Then GSRNNWKTPWSDNHGTLWRC, with -0.298 ± 0.47.
Then GSRVVQRYVAVHACVHERVT, with 0.589 ± 0.4; and GSSDPHVLVN, with 0.341 ± 0.26; and GSSQWFRQVLYFRQSPGWGS, with -0.33 ± 0.65.
In the case of GSSTVNL, the amyloid nucleation score was -0.345 ± 1.7.
For GSTQPCRNTFLLFLPALTIP the value was “inactive”; for GSTRYHAKMDPGWVRFT, -0.482 ± 1.7.
For GSVRRKRHGHLDV the value was “inactive”; for GTDRSLAVIFKARCWFWATR, -1.14 ± 1.7; for GTFAWGHRFYVIAAYFILYD, “inactive”.
In turn, GTKWVTLQRGGRLGMGRRSD yielded an amyloid nucleation score of 0.562 ± 1.2.

The values are drawn from the supplement of paper PMC12042874.
